The record followed here is the DeepSol protein solubility set.

The series can be described thus: soluble on expression in E. coli; label from the status in PepcDB or PDB records.
Turning to “MAHHHHHHMLLAIVRDLLQLFRPYAAALHPETTQVWFSVRDTPLSWLYPAGAVKDYVNECVREERAAHLSASSPSSPPLSSAAALLQSHLCTILSEPLELSFHIHSLTKGSSLARTVPLYINYDRLEEHIRMEVKQAHKAAYTVLYGNYAIYQREAESALQAAVGLALYRPFDAAAQEQLQQQRYRDPGSSGSGGAGVGNGGYSSSNSPGGGYSAPFAFTSPYLLVEYQQLLRGLLTPRPHVAYLIRIGFPFAYRGAAGRSESGYLQYDAHRVSAAPALALSVTTTEAAAAPTMEPEQLPLGLLLWRLFRAPVLRWKAQQLQQHPTDNTSPSTAAHASATVLSEVERTYQQLLRTLAPYYADPPRCATDGLEQQEPLMTSTPPEPPAWAAWERAMVQAFMRDYEERPEKCGLGFEFAEAAATSAASPNAVRRVRFMVQGIQPPLTTPGSFLEAHLSSSDRAIFVTVQV”, the “soluble on expression in E. coli” value is reported as “not soluble”.
With “MGSDKIHHHHHHMIHTLYRYCIAFTVVFLSACSVTPRQDASESQAGASAAATLASWNDTRTKRSIVDFVTLVTTPESRDFIPSADRIAVFDNDGTLWPEQPVRVQLVFALQRVKTVAGRHPEWKRQEPFRSILKGNLRSVAASGDAGSLRVLAAAHVGMTSEQFAALAHEWFDSASDPRFNRLYADLAYQPMLELLAYLRANGFKTYLVTGGDVEFVREVAQRMYGIPPEQVIGSTVRYRYSQTNDAISLTRLAQVDTLVDGAAKPLAIDRVIGRRPVIAFGNADGDAPMLEWTSAGDGPRLAALVHHTDAEREYQYDHASQSGKLDKGLDEAAVKGWLIVDMKDDWKTVFKPANTTAPGATGATGATVK” the entry was “not soluble”; with “MGSDKIHHHHHHVSNGAATRVRRSREKILGAAESVFLQHGFLGTNMDVIADTAGVSKQTVYAHFKSKEALFIDVVEAMTGGAAEEIGEDIEDVFGDRKAEDYLLEVAIDQLTVVLTPRLMQLRRMVIGEVERFPELGRSLYVNGPIRSITRLTRACAHYTRIGELITPDPQAAATQFNWIVMGAPTNAAMLLGDAGIPTSAQLQAHATEAVRIFLCAYGAKQMHPR”, “not soluble”.
With “MGHHHHHHSHMIEVLTTTDSQKLLHQLNALLEQESRCQPKVCGLRLIESAHDNGLRMTARLRDFEVKDLLSLTQFFGFDTETFSLAVNLLDRFLSKMKVQPKHLGCVGLSCFYLAVKSIEEERNVPLATDLIRISQYRFTVSDLMRMEKIVLEKVCWKVKATTAFQFLQLYYSLLQENLPLERRNSINFERLEAQLKACHCRIIFSKAKPSVLALSIIALEIQAQKCVELTEGIECLQKHSKINGRDLTFWQELVSKCLTEYSSNKCSKPNVQKLKWIVSGRTARQLKHSYYRITHLPTIPEMVP” the entry was “not soluble”.
Regarding “MSEPSEKKQKVATSSLEQLKKAGTHVVADSGDFEAISKYEPQDSTTNPSLILAASKLEKYARFIDAAVEYGRKHGKTDHEKIENAMDKILVEFGTQILKVVPGRVSTEVDARLSFDKKATVKKALHIIKLYKDAGVPKERVLIKIASTWEGIQAARELEVKHGIHCNMTLLFSFTQAVACAEANVTLISPFVGRIMDFYKALSGKDYTAETDPGVLSVKKIYSYYKRHGYATEVMAASFRNLDELKALAGIDNMTLPLNLLEQLYESTDPIENKLNSESAKEEGVEKVSFINDEPHFRYVLNEDQMATEKLSDGIRKFSADIEALYKLVEEKMLEHHHH”, the “soluble on expression in E. coli” value is recorded as “soluble”.
Next, “MSLNLSKTLKHVYQEAKVSDLFPITHLNSPCIFESQSGLVGSVIKVNGAAFEIEEAETLNHQRFLLHQALVSLDSRFIIYVTTHRQKISCPLIGEFKPGFAKDLDERYQQRFKDKNLYKNTLYITVVLKGDDTSKTGSWLKWAKSLSIKGNSELSEHHREQSIQTLNRVVEQLQANLNPFEATILGKQDEVLGFSELLQFLGLVVNAGQTTSFKHPVCSPPIANSIPQTFKQEVKYPEGHLGQYLSSCQLLFGECIQFQGNTQKDCVFGAMLSLKKYPTNTASILLDSMLSLDCEFIATHTFAPIGRDSALDTISKKRSKLLSAEDKALSQTTALSDLEDGIASETLLLGAHHHTVMLLAPNKSLLDAAILEATKRYGSAGIVVVKETLGLEPAFWSQLPCNQHFITRASLITSQNFVDFCPLHNTQTGFSNENFLGGAVTLLETPSKTPVYFNYHARGSKTEGHHHHHH”: “soluble”; “MLERTQVFVDTSYLLASFYNSWETGARAQLEIDLPEVVGVLGRMIEQQLKQPVQRQMWYDGIPDSGPHRYQRALRTCDGVQLRAGQLIEWGERRTQKAVDTRLVADLVLAGVRGQCSDIVLVSGDADMIPGVQEAANAGLRVHLYGFGWDSMSSQLRHCCDTTTILDPRED”: “not soluble”; “MSLGQKFAVFIAYDDEPNTKRYSAEFQTQDEYVKGWQSALKKAHHTSGQKSVISCGCRGKGAKRLYVRSLPNSDTFILIKAANTGTEHDPSCVFFDLDARHTGLKGYASNVVRINNEGTMSIRLGIGMTEKDPPEKSEVPSLPQIQRPEGGQASMTLSGLLSLLWTEAGLNVWYPNMAGKRNDSLVRYRMLEAAKQIRSGRACIGDHLFIGVADSKSKVASEQVQLLSSAELSDKRLLLLSVLPRYDAEKHEKPLKFLPMRNFGGMPLTFFNSDGHWDSVKRRFPLEYAAWKNGGKVVVFALTSPVSVTSRGISARAHQIVLMLVSDNWIPLDSSYEAIVSRKLDAEHRHYVKPMRYDASASDVFPDFYLLDTRSDKPFPMEVFGMSTPAYLARKELKKAYYNQEYGAYGWWHWDATEKTEYQELPHFPEARREGHHHHHH”: “soluble”.
Next, “MGSDKIHHHHHHMNTLEIAKEVFEKEAQAILDLATNLDENFNQAVNLMLNTKGRCIVSGMGKSGHIGAKIAATLASTGTPSFFIHPGEALHGDLGMLTSEDVLIAISNSGETEEILKIIPAIKKREIPLIVMCGKKNSTLVKQGDIFLNIAVEKEACPLQLAPMSSTTATLVMGDALAAALMKVRNFKPDDFALFHPGGSLGRKLLTKVKDLMVSSNLPIVHPDTEFNDLVDVMTSGKLGLCVVLENEKLVGIITDGDLRRALKASDKPRFDFKAKEIMSINPKVVDADAMASEAEGIMLKHKIKEIIVGKEEKVVGIIQLYAIGNV”: “not soluble”; “MSLDAPYFSPRRLGHVNLIVRDTDASMRFYQDVVGFEEVYRVPAIGGGFLSNGNTHHDVGMVQSSGPSGKGRPPGLNHLAFELETEVALVEGYERSRQDGLAFERTLDHDIAHSAYCADPDGNSCELYADVVREWRTARTGEVTKPKPAWWPGKTPPNPHRNYHAEPQLRQVAHAAFHPLRTQHATLVVADLRESIAFYTRRIGLALQAQGDGYALLGGRCGRRDVALVQARGQLSPGYHHVGLEVADAGELLQAAQRWREQGGQVERLIEHPLRTAVYITDPDGLLLQFFVDHAADHAAWRHLDREQALWIVEGHHHHHH”: “not soluble”.
“MHAPLVSKDLDYISTANHDQPPRHLGSRFSAEGEFLPEPGNTVVCHLVEGSQTESAIVSTRQRFLDMPEASQLAFTPVSSLHMTVFQGVIESRRALPYWPQTLPLDTPIDAVTDYYRDRLSTFPTLPAFNMRVTGLRPVGMVMKGATAEDDSIVALWRDTFADFFGYRHPDHDTYEFHITLSYIVSWFEPECLPRWQAMLDEELEKLRVAAPVIQMRPPAFCEFKDMNHFKELVVFDKR”: the “soluble on expression in E. coli” value is “soluble”.
Next, “MVGGVEELSIEQLASSISTYKEQLEQNFVCGLEFRIGEEKLNVRQLLSEDPRNSEYADMEKELKEVIALTEEVLATAKQNEISLSDAGVSAEATPGSPDLEGAWEKTGLRNDPIHEGKFPVGTKVQAVFSDDGEWYDATIEAHTANGYFVAYDEWGNKEEVDPDNVRPIEQNAIVEAERLAQATKNALKRKIEKAASSDYQTKTLPAKLKIDPNDPEDVKIAKRKKIHAFKSKARFEQLEVVQNKKQNDWQQFQTTKAKTKKVGFFTGRKKESIFKSPEDPFGKVGVTGSGKGLTDFQKREKHLHLKSGNAEGTDE”: “soluble”.
“MANIYLNIEADSAQELKEILSQLATDNVVEVTQSLNTADKKATEEVEKAAKKEPAKKKKATAKKKEEVSTASTSDTEPSKTGEKVAPTDSETEEVSATADLHLGATKADVQEAMRKAMDKGKRPMIKTCFSRYNAEKLSDLKEEHYGKFITDLETLVGE”: the “soluble on expression in E. coli” value was “not soluble”.
On to “MKALLPGLYLLPVPIPYPLKTVNLYLLQGAGEVALVDTALGTRAARGALELHLAELGLCFQDVKTILLTHHHPDHYGLSGFFEGLGARVFLHEEEFARGHRFWREPEAFAEASWRLFLDHGTPEGALQGIRETVEKTRERVHPPQNPLPLRDGEALEVAGKRLRVLWTPGHADGHAAFYLEEEGVLLAGDALLEKVSPNVGLWAYTRENPLKDFLRSLDRLADLGARVAYAGHFGPIADVRQRAEELKAHHQARLEALLALLDGPKTAWELSLHLFPQELDPAGRRFAFAETLAHLEYLREEGAVGRGGPPYRYFRR”, for which the “soluble on expression in E. coli” value is recorded as “soluble”.
Next, “MLITSYNPSELGDTLITILRPDTATQTIETHANVTRISDADSGETLGYNFFDVSKTLGDLDANGQVHLTAEQVEQLNNLLKTNDFEPELVLDTDPKFVVGYVESAEAHPKSDHLQITKTNVGLEQPLQIVSGSPNMQANILVVVAKVGAMMPSGLIIWPGELRGVESDGMIVSGRELRLPNAPQRPGALILPADYQPVGAAFDFKRAQTLFTALEHHHHHH”: “not soluble”; “MVITLSRLYVHPVKSMRGLQLSHAQVSRSGLAFDRVFMITEPDGMFITARQYPKMVMFTPALMADGLYLTAPDGESASIRFNDFLANPAPTEVWGNHFTALIAPEAINSWLSGYFQRDVQLRWVGTELTRRVKPLPEVPLSFADGFPYLLINEASFKDLQQRCPASIKLEQFRPNLVITGTTAFAEDCWQVIRIGDITFDLVKPCSRCVLTTVSVERGQKHPAGEPLRTLQTFRTAENGDVDFGQNMVARNSGIIRVGDEVEVLITKPPRPYGAGAVVESLSAPQDQSKTVSIEYNGIRFNGNNQQILLEQLEQQNIRIPYSCRAGICGSCRVTLLTGDVAALKKSAVGNDGTILCCSCIPKGDISLSGK”: “not soluble”.
Next, “MNLPQNIRYRRYQDWTEEEIKSIKTNVALSPWHTTYHIEPKTGLLNDPNGFSYFNGKFNLFYQNWPFGAAHGLKSWIHTESEDLVHFKETGTVLYPDTSHDSHGAYSGSAYEIGDQLFLFYTGNVRDENWVRHPLQIGAFMDKKGNIQKFTDVLIKQPNDVTEHFRDPQIFNYKGQFYAIVGAQSLDKKGFIKLYKAVDNDIKNWQEVGNLDFGGSKSEYMIECPNLVFINEQPVLIYSPQGLSKSELDYHNIYPNTYKVCQSFDTEKPALVDASEIQNLDFGFECYATQAFNAPDGRVYAVSWIGLPDIDYPSDSYDYQGALSLVKELSLKHGKLYQYPVEAVRSLRSEKEAVTYKPETNNTYELELTFDSSSVNELLLFADNKGNGLAITVDTKMGTILIDRSKAGEQYALEFGSQRSCSIQAKETVVNIFVDKSIFEIFINKGEKVFTGRVFPNDKQTGIVIKSGKPSGNYYELKYLEHHHHHH”: “soluble”; “MEPVFKEPSPKKKRVENPPENAPDAPKKPQLKHESEFLRSIPSSSQYEKSFMHRDTISHVIATKTDFIITASVDGHLKFWKKKHSEGVEFVKHFRCHLSEFSHICANIDGTLLATVCEADKSVKVFDIENFDMINMIKLDFPPKTANWVHQSNDPIAHLAIGAADSGKIIVVDGKATAAPICIKDKLHSTPVKIIEYSQSLDIIVSIDESGMIECWNGERGDFQFPETKLTWEYKLETDLYDFVKAKTIPVCATFDPSGLKLATFAEDRKIRIFNVKTGKLAQLIDETTQKYHCEAKENKNYGLQHMEWSRRLASEKEMDKDKKNSLKYTKICFDQSGNFLLYPTPIGVKVFNLVTNEVSRTIGRDEAIRFVAVSLCNALPDIRQKLQGAAITLETAAADNPTLNRKTDPDPLMVCCALRKNRFYLFTNTEPYNVEDDEGNPSVSGRDVFNERPKKEDLLTALDTEGGEKVLNKEAIIHTSFGDITIRLFGDECPKTVENFCTHSRRGYYNGLTFHRVIKSFMIQTGDPSGKGTGGESIWGEDFEDEFHPRLRHDKPFKVSMANAGGGNTNGSQFFITVCPADWLDGKNTLFGEVTAGMSVVQRINQVSTFERSGRPRESIQIMSISLK”: “not soluble”.
